Results: US20090253131A1, “HYBRID FUSION REPORTER AND USES THEREOF” (Promega Corporation, priority 2007, published 2009)

B1: DhaA.D106C: DhaA with Asp106 replaced by Cys (protein, UniProt P0A3G2 1-293, looked up, variant D106C)
Haloalkane dehalogenase: MSEIGTGFPFDPHYVEVLGERMHYVDVGPRDGTPVLFLHGNPTSSYLWRNIIPHVAPSHRCIAPDLIGMGKSDKPDLDYFFDDHVRYLDAFIEALGLEEVVLVIHCWGSALGFHWAKRNPERVKGIACMEFIRPIPTWDEWPEFARETFQAFRTADVGRELIIDQNAFIEGALPKCVVRPLTEVEMDHYREPFLKPVDREPLWRFPNELPIAGEPANIVALVEAYMNWLHQSPVPKLLFWGTPGVLIPPAEAARLAESLPNCKTVDIGPGLHYLQEDNPDLIGSEIARWLPAL
B2: DhaA.D106C:H272F: DhaA double mutant D106C and H272F (protein, UniProt P0A3G2 1-293, looked up, variant D106C H272F)
Haloalkane dehalogenase: MSEIGTGFPFDPHYVEVLGERMHYVDVGPRDGTPVLFLHGNPTSSYLWRNIIPHVAPSHRCIAPDLIGMGKSDKPDLDYFFDDHVRYLDAFIEALGLEEVVLVIHCWGSALGFHWAKRNPERVKGIACMEFIRPIPTWDEWPEFARETFQAFRTADVGRELIIDQNAFIEGALPKCVVRPLTEVEMDHYREPFLKPVDREPLWRFPNELPIAGEPANIVALVEAYMNWLHQSPVPKLLFWGTPGVLIPPAEAARLAESLPNCKTVDIGPGLFYLQEDNPDLIGSEIARWLPAL
B3: DhaA.D106E: DhaA single mutant D106E (protein, UniProt P0A3G2 1-293, looked up, variant D106E)
Haloalkane dehalogenase: MSEIGTGFPFDPHYVEVLGERMHYVDVGPRDGTPVLFLHGNPTSSYLWRNIIPHVAPSHRCIAPDLIGMGKSDKPDLDYFFDDHVRYLDAFIEALGLEEVVLVIHEWGSALGFHWAKRNPERVKGIACMEFIRPIPTWDEWPEFARETFQAFRTADVGRELIIDQNAFIEGALPKCVVRPLTEVEMDHYREPFLKPVDREPLWRFPNELPIAGEPANIVALVEAYMNWLHQSPVPKLLFWGTPGVLIPPAEAARLAESLPNCKTVDIGPGLHYLQEDNPDLIGSEIARWLPAL
B4: DhaA.H272F: Rhodococcus rhodochrous dehalogenase DhaA with His272 replaced by Phe (protein, UniProt P0A3G2 1-293, looked up, variant H272F)
Haloalkane dehalogenase: MSEIGTGFPFDPHYVEVLGERMHYVDVGPRDGTPVLFLHGNPTSSYLWRNIIPHVAPSHRCIAPDLIGMGKSDKPDLDYFFDDHVRYLDAFIEALGLEEVVLVIHDWGSALGFHWAKRNPERVKGIACMEFIRPIPTWDEWPEFARETFQAFRTADVGRELIIDQNAFIEGALPKCVVRPLTEVEMDHYREPFLKPVDREPLWRFPNELPIAGEPANIVALVEAYMNWLHQSPVPKLLFWGTPGVLIPPAEAARLAESLPNCKTVDIGPGLFYLQEDNPDLIGSEIARWLPAL
B5: YL: DhaA.H272F based mutant Y273L (protein, UniProt P0A3G2 1-293, looked up, variant H272F Y273L)
Haloalkane dehalogenase: MSEIGTGFPFDPHYVEVLGERMHYVDVGPRDGTPVLFLHGNPTSSYLWRNIIPHVAPSHRCIAPDLIGMGKSDKPDLDYFFDDHVRYLDAFIEALGLEEVVLVIHDWGSALGFHWAKRNPERVKGIACMEFIRPIPTWDEWPEFARETFQAFRTADVGRELIIDQNAFIEGALPKCVVRPLTEVEMDHYREPFLKPVDREPLWRFPNELPIAGEPANIVALVEAYMNWLHQSPVPKLLFWGTPGVLIPPAEAARLAESLPNCKTVDIGPGLFLLQEDNPDLIGSEIARWLPAL
B6: YM: DhaA.H272F based mutant Y273M (protein, UniProt P0A3G2 1-293, looked up, variant H272F Y273M)
Haloalkane dehalogenase: MSEIGTGFPFDPHYVEVLGERMHYVDVGPRDGTPVLFLHGNPTSSYLWRNIIPHVAPSHRCIAPDLIGMGKSDKPDLDYFFDDHVRYLDAFIEALGLEEVVLVIHDWGSALGFHWAKRNPERVKGIACMEFIRPIPTWDEWPEFARETFQAFRTADVGRELIIDQNAFIEGALPKCVVRPLTEVEMDHYREPFLKPVDREPLWRFPNELPIAGEPANIVALVEAYMNWLHQSPVPKLLFWGTPGVLIPPAEAARLAESLPNCKTVDIGPGLFMLQEDNPDLIGSEIARWLPAL
B7: YC: DhaA.H272F based mutant Y273C (protein, UniProt P0A3G2 1-293, looked up, variant H272F Y273C)
Haloalkane dehalogenase: MSEIGTGFPFDPHYVEVLGERMHYVDVGPRDGTPVLFLHGNPTSSYLWRNIIPHVAPSHRCIAPDLIGMGKSDKPDLDYFFDDHVRYLDAFIEALGLEEVVLVIHDWGSALGFHWAKRNPERVKGIACMEFIRPIPTWDEWPEFARETFQAFRTADVGRELIIDQNAFIEGALPKCVVRPLTEVEMDHYREPFLKPVDREPLWRFPNELPIAGEPANIVALVEAYMNWLHQSPVPKLLFWGTPGVLIPPAEAARLAESLPNCKTVDIGPGLFCLQEDNPDLIGSEIARWLPAL
B8: H11YL: second generation DhaA.H272F mutant, H11 recombined with Y273L (SEQ ID NO:3) (protein)
chain: SEIGTGFPFDPHYVEVLGERMHYVDVGPRDGTPVLFLHGNPTSSYLWRNIIPHVAPSHRCIAPDLIGMGKSDKPDLDYFFDDHVRYLDAFIEALGLEEVVLVIHDWGSALGFHWAKRNPERVKGIACMEFIRPIPTWDEWPEFARETFQAFRTADVGRELIIDQNAFIEGALPMGVVRPLTEVEMDHYREPFLKPVDREPLWRFPNELPIAGEPANIVALVEAYMNWLHQSPVPKLLFWGTPGVLIPPAEAARLAESLPNCKTVDIGPGLFLLQEDNPDLIGSEIARWLPAL
modifications: A synthetic mutant dehalogenase sequence

Tests used:
[1] = Binding of DhaA mutants to carboxytetramethylrhodamine chloroalkane substrate
Method: DhaA.H272 mutants, i.e. H272F/G/A/Q, bound to carboxytetramethylrhodamine-C10H21NO2—Cl.
A control mutant, DhaA.D106Q, single mutants DhaA.D106C, DhaA.D106Y, and DhaA.D106E, as well as double mutants DhaA.D106C:H272F, DhaA.D106E:H272F, DhaA.D106Q:H272F, and DhaA.D106Y:H272F were analyzed for binding to carboxytetramethylrhodamine-C10H21NO2—Cl. Carboxytetramethylrhodamine-C10H21NO2—Cl bound to DhaA.D106C, DhaA.D106C:H272F, DhaA.D106E, and DhaA.H272F. Thus, the bond formed between carboxytetramethylrhodamine-C10H21NO2—Cl and cysteine or glutamate at residue 106 in a mutant DhaA is stable relative to the bond formed between carboxytetramethylrhodamine-C10H21NO2—Cl and DhaA.WT. Other substitutions at position 106 alone or in combination with substitutions at other residues in DhaA may yield similar results. Further, certain substitutions at position 106 alone or in combination with substitutions at other residues in DhaA may result in a mutant DhaA that forms a bond with only certain substrates.

[2] = Fluorescence polarization (FP) labeling kinetics of purified DhaA mutants, TMR substrate; format: biochemical
From the text: (§1) Fluorescence polarization (FP) is ideal for the study of small fluorescent ligands binding to proteins. It is unique among methods used to analyze molecular binding because it gives direct nearly instantaneous measure of a substrate bound/free ratio. Therefore, an FP assay was developed as an alternative approach to fluorimage gel analysis of the purified DhaA mutants.
(§2) Based on the sensitivity and truly homogenous nature of this assay, FP was used to characterize the labeling properties of the purified DhaA mutants with the fluorescently coupled substrates. The data from these studies was then used to calculate a second order rate constant for each DhaA mutant-substrate pair.

[3] = MagneGST-based labeling assay of DhaA mutants, biotin substrate; format: biochemical
From the text: An automated MagneGST™-based assay was used to screen the DhaA mutant protein libraries. […] The hits identified by the initial primary screen were located in the master plates, consolidated, re-grown and reanalyzed using the MagneGST™ assay.
In order to distinguish these recombined protein mutants from the mutants identified in round one of screening (first generation), they are referred to as “second generation” DhaA mutants.

[4] = Kinetic labeling studies of purified DhaA mutants, fluorimage gel analysis; format: biochemical; conditions: fluorimaged gel, 10 ng protein, refined time-course
Method: Preliminary kinetic labeling studies were performed using several DhaA.H272F derived mutants. […] A more expanded time course analysis was performed on the DhaA.H272F A7 and the two second generation DhaA.H272F mutants A7YM and H11YL. […] The fluorescent bands on gel were quantitated and the relative rates of product formation determined. In order to determine a labeling rate, the concentration of the H11YL was reduced from 50 ng to 10 ng and a more refined time-course was performed. Under these labeling conditions a linear initial rate could be measured. Quantitation of the fluorimaged gel data allowed second order rate constants to be calculated.

[5] = FP
From the text: as §1, §2

[6] = target: T1, rapamycin-mediated FRB/FKBP protein-protein interaction (Homo sapiens, UniProt P42345+P62942); experiment: Protein complementation labeling (PCL) in vitro with HT2 fragments, rapamycin-mediated FRB/FKBP; format: biochemical; conditions: with or without 1 μM rapamycin, 0.1 μM TMR ligand 2 hours
T1 construct: made in house; host or cells: cell-free: RiboMax transcription, Wheat Germ Plus translation
Method: The rapamycin-mediated FRB/FKBP protein-protein interaction and a mutant DhaA were employed in a PCL. FRB and FKBP will only interact when rapamycin is present. Therefore, if PCL is successful, the reconstituted reporter is labeled only when the fusion proteins are incubated together in the presence of rapamycin.
Two pF9 (Kan) vectors were generated which contained either FRB or FKBP ORF plus the linker sequence (GlyGlyGlyGlySer)2 upstream of the SgfI/PmeI sites. A mutant DhaA gene (HT2) at positions corresponding to those useful to prepare Renilla luciferase fragments for PCS (see Example 2 and FIG. 7) with FRB-N-terminal and FKBP-C-terminal fusions. HT2 N- and C-termini halves were amplified using PCR primers and cloned into the SgfI/PmeI sites. PCL was performed in vitro by expressing each clone individually using RiboMax followed by Wheat Germ Plus reactions (HT2). Protein was expressed with or without FluoroTect™. FluoroTect™ labeling ensured that all proteins were expressed in approximately equal amounts (data not shown). Unlabeled proteins were then incubated alone or with the appropriated partner with or without 1 μM rapamycin. Ten μl of these products were then incubated with 0.1 μM of a TMR labeled ligand for the mutant dehalogenase, for 2 hours in the dark. […]

CHO cells = experiment: Protein complementation labeling (PCL) with HT2 in transiently transfected CHO cells; format: cell-based; conditions: +/−1 μM rapamycin 2.5 hours, 1.0 μM HaloTag TMR ligand 1 hour
Method: For transient transfections, CHO cells were plated in a 6 well plate and transfected in duplicate using TransIT®-CHO. The next day, cells were incubated +/−1 μM rapamycin for 2.5 hours followed by 1.0 μM HaloTag® TMR ligand for 1 hour. Cells were washed in PBS, trypsinized, pelleted and mechanically lysed in 200 ul PBS with protease inhibitor and RQDNase I. Normalized amounts of proteins were microwaved for 30 seconds on high and run on a denaturing NuPAGE® gel.

T1 sequence (P42345 2012-2144 limits assumed): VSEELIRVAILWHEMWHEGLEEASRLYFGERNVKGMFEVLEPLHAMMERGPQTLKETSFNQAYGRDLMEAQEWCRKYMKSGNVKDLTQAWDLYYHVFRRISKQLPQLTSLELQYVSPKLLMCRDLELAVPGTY
T1 sequence (P62942 whole entry, the tested form may be a part): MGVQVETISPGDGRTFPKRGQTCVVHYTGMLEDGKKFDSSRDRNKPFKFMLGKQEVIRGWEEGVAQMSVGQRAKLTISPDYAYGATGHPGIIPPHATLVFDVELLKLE

| Molecule | binding to carboxytetramethylrhodamine-C10H21NO2—Cl [1] | improvement over the parental clones using the biotin-PEG4-14-Cl substrate [3] | further results |
| --- | --- | --- | --- |
| B1 | bound | – | – |
| B2 | bound | – | – |
| B3 | bound | – | – |
| B4 | bound | – | fold more protein required in the reaction to obtain measurable rates ([2]; relative to DhaA.H272F H11YL): ~420 fold |
| B5 | – | significantly improved | – |
| B6 | – | significantly improved | – |
| B7 | – | significantly improved | – |
| B8 | – | – | second order rate constant for carboxytetramethylrhodamine-C10H21NO2—Cl labeling [4]: 500000 M⁻¹ s⁻¹; second order rate constant with carboxytetramethylrhodamine-C10H21NO2—Cl [2]: 2.2e+06 M⁻¹ s⁻¹; carboxyfluorescein-C10H21NO2—Cl labeling rate slower/lower than carboxytetramethylrhodamine-C10H21NO2—Cl labeling rate [5]: 100 fold; TMR labeling [6]: labeled; TMR labeling in CHO cells (CHO cells): labeled irrespective of rapamycin addition |
